Measurements as given in patent US12006344 (Novo Nordisk, dated 2024).
Where a chain is given by its changes, count along the chain named. Numbers in names are those of the source.

T1: human MIC-1 receptor (hGFRAL, GDNF family receptor alpha like) (human, UniProt Q6UXV0 19-394)
T1 sequence (looked up): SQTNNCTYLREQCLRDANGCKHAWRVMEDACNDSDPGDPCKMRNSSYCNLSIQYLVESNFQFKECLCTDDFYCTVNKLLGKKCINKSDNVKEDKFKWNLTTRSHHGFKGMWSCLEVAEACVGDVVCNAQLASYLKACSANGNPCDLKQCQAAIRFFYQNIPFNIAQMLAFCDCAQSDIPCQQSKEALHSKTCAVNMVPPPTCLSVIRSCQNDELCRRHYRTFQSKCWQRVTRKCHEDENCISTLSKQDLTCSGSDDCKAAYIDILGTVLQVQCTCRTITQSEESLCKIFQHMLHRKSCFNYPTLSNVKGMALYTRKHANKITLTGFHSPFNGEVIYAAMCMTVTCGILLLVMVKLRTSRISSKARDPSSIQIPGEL

B1: (SEPATSGSETPG)2-MIC-1-Δ1-3(M86L) (ligand)
chain: SEPATSGSETPGSEPATSGSETPGGDHCPLGPGRCCRLHTVRASLEDLGWADWVLSPREVQVTMCIGACPSQFRAANMHAQIKTSLHRLKPDTVPAPCCVPASYNPLVLIQKTDTGVSLQTYDDLLAKDCHCI
B2: (SEPATSGSETPG)2-MIC-1-Δ1-3(M57L, M86L) (ligand)
chain: B1 chain with M78L
B3: SEPATSGSETPGTSESATPESGPG TSTEPSEG-MIC-1-Δ1-3 (ligand)
chain: SEPATSGSETPGTSESATPESGPGTSTEPSEGGDHCPLGPGRCCRLHTVRASLEDLGWADWVLSPREVQVTMCIGACPSQFRAANMHAQIKTSLHRLKPDTVPAPCCVPASYNPMVLIQKTDTGVSLQTYDDLLAKDCHCI
B4: SEPATSGSETPGTSESATPESGPGTSTEPS-MIC-1-Δ1-3 (ligand)
chain: SEPATSGSETPGTSESATPESGPGTSTEPSGDHCPLGPGRCCRLHTVRASLEDLGWADWVLSPREVQVTMCIGACPSQFRAANMHAQIKTSLHRLKPDTVPAPCCVPASYNPMVLIQKTDTGVSLQTYDDLLAKDCHCI

Biological target: T1, human MIC-1 receptor (hGFRAL, GDNF …)
Test: cell-based or functional assay

Row | Molecule | pERK EC50 (nM) | pERK Emax (%)
1 | B1 | 0.4 | 100
2 | B2 | 0.4 | 100
3 | B3 | 0.4 | 100
4 | B4 | 0.4 | 100

Biological target: human MIC-1 receptor (hGFRAL, GDNF family receptor alpha like) (human) (UniProt Q6UXV0)
Test: cell-based or functional assay

Row | Molecule | pERK EC50 (nM)
5 | HSA-GGSSSGS (SEQ ID NO: 152)-MIC-1 (SEQ ID NO: 1) (from UniProt Q99988 197-308) (ligand) | 3.6
